Molecular target: T1, Recombinant human PDZD8 (1, 28–)—FLAG (human, UniProt Q8NEN9 1-1154, (1, 28–), ∆TM)
T1 sequence (looked up): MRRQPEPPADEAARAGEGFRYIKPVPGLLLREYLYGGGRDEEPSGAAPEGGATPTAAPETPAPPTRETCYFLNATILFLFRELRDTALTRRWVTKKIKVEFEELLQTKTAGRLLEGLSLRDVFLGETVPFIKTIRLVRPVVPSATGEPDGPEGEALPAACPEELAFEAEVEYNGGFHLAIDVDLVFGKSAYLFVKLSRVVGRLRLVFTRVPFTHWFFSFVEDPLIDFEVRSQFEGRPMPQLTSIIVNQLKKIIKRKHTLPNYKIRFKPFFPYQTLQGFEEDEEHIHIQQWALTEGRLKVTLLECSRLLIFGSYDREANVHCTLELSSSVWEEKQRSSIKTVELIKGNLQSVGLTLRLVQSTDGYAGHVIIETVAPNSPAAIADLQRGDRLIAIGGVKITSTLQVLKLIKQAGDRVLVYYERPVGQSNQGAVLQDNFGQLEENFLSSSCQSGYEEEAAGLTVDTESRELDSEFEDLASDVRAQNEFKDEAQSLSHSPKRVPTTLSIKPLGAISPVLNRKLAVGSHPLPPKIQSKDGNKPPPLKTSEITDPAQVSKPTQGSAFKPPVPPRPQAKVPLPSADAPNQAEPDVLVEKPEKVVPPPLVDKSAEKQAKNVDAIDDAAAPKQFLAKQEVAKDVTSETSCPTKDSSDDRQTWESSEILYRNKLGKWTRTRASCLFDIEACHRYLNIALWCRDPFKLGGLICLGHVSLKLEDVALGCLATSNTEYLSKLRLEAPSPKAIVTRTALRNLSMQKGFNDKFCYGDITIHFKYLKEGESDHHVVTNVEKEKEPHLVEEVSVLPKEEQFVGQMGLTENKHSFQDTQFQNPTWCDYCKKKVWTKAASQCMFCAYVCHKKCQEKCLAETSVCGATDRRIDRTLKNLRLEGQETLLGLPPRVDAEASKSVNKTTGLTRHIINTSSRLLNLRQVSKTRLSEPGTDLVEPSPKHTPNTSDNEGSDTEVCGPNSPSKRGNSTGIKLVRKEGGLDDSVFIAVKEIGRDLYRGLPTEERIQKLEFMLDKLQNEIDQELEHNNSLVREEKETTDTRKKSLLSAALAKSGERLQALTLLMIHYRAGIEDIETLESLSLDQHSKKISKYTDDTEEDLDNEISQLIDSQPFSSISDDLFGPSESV
Test: SPR

B1: Recombinant human FKBP8 (1–380)—Histag (domain or fragment, UniProt Q14318 1-380, looked up)
chain: MASCAEPSEPSAPLPAGVPPLEDFEVLDGVEDAEGEEEEEEEEEEEDDLSELPPLEDMGQPPAEEAEQPGALAREFLAAMEPEPAPAPAPEEWLDILGNGLLRKKTLVPGPPGSSRPVKGQVVTVHLQTSLENGTRVQEEPELVFTLGDCDVIQALDLSVPLMDVGETAMVTADSKYCYGPQGRSPYIPPHAALCLEVTLKTAVDGPDLEMLTGQERVALANRKRECGNAHYQRADFVLAANSYDLAIKAITSSAKVDMTFEEEAQLLQLKVKCLNNLAASQLKLDHYRAALRSCSLVLEHQPDNIKALFRKGKVLAQQGEYSEAIPILRAALKLEPSNKTIHAELSKLVKKHAAQRSTETALYRKMLGNPSRLPAKCPG
B1 was tested, and the Kd was 142 µM.
